The values that follow come from paper PMC314469, “Protein Interaction Networks by Proteome Peptide Scanning” (PLoS Biology, 2004).

Common to all, as to assay: SPOT array
The target in assay [1] is Sho1 SH3 (SHO1_YEAST), P40073.
The target in assay [2] is T1, Boi1 SH3 (BOI1_YEAST), P38041.
T1 chain: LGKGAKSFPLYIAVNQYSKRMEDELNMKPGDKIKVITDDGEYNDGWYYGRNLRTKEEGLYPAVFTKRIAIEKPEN

In assay [3] the target is T2, Boi2 SH3 (BOI2_YEAST), P39969.
T2 chain: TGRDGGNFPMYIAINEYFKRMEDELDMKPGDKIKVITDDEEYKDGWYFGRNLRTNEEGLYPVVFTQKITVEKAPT

Assay [4] addresses T3, Yfr024 SH3 (LSB3_YEAST), P43603.
T3 chain: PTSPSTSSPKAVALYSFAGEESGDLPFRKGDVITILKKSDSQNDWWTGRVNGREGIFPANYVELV

For assay [5], the target named is T4, Yhr016c SH3 (YSC84_YEAST), P32793.
T4 chain: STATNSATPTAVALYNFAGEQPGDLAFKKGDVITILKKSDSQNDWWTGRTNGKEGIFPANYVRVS

Assay [6] concerns the target T5, Myo5 SH3 (MYO5_YEAST), Q04439.
T5 chain: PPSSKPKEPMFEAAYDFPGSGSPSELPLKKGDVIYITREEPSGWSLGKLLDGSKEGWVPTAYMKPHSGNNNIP

The target in assay [7] is T6, Rvs167 SH3 (RV167_YEAST), P39743.
T6 chain: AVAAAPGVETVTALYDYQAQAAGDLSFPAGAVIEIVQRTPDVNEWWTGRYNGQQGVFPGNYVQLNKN

Sequence of Sho1 SH3 (SHO1_YEAST), P40073 (P40073 295-366): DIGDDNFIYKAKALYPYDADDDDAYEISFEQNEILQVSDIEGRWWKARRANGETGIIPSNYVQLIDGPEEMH

Take KAALKYHPDKPTGD [YNL007C 28-41]: the normalised SPOT signal, Boehringer light units (BLU); mean over the file's lines of this peptide stood at 60.7 in assay [1]; 21.4 in assay [2]; 18.7 in assay [3]; 32.9 in assay [4]; 18.6 in assay [5]; 156 in assay [6]. For the same molecule, the normalised SPOT signal, Boehringer light units (BLU); mean over the file's lines of this peptide in assay [7] was 84.8.

As to KEFFRLTPNQPVGL [YOR168W 628-641], the normalised SPOT signal, Boehringer light units (BLU); mean over the file's lines of this peptide in assay [1] is 25.9; in assay [2], 136; in assay [3], -0; in assay [4], 166; in assay [5] it was 14.9; in assay [6], 43.8. Further, the normalised SPOT signal, Boehringer light units (BLU); mean over the file's lines of this peptide in assay [7] came out at 175.

Take IVNEKRTPALPSNL [YOR191W 260-273]: the normalised SPOT signal, Boehringer light units (BLU); mean over the file's lines of this peptide amounted to 86.8 in assay [1]; 73.8 in assay [2]; 20.9 in assay [3]; 74.4 in assay [4]; 11.6 in assay [5]; 102 in assay [6]. Moreover, the normalised SPOT signal, Boehringer light units (BLU); mean over the file's lines of this peptide in assay [7] is 51.5.

As for KALWKIQPYLPEFS [YML130C 280-293], the normalised SPOT signal, Boehringer light units (BLU); mean over the file's lines of this peptide in assay [1] is 178; in assay [2], 0; in assay [3] it was 47.8; in assay [4], 201; in assay [5], 43; in assay [6], 146. The same molecule showed a normalised SPOT signal, Boehringer light units (BLU); mean over the file's lines of this peptide in assay [7] of 41.7.

Consider KFDAKGRPIPPHPD [YJL042W 327-340], for which the normalised SPOT signal, Boehringer light units (BLU); mean over the file's lines of this peptide in assay [1] turned out to be 27.1; in assay [2] it was 460; in assay [3] it was 3.5; in assay [4] it was 224; in assay [5], 39.4; in assay [6], 53.5. The molecule further gave a normalised SPOT signal, Boehringer light units (BLU); mean over the file's lines of this peptide in assay [7] of 58.6.

KDEVKLHPPEPKDL [YIL009W 251-264]: the normalised SPOT signal, Boehringer light units (BLU); mean over the file's lines of this peptide in assay [1] worked out at 50.6; in assay [2], 102; in assay [3] it was 2.4; in assay [4], 0; in assay [5], 18.9; in assay [6] it was 164. The molecule also gave a normalised SPOT signal, Boehringer light units (BLU); mean over the file's lines of this peptide in assay [7] of 32.3.

On to IYHSKKQPLVPIGS [YML030W 25-38], for which the normalised SPOT signal, Boehringer light units (BLU); mean over the file's lines of this peptide in assay [1] was 144; in assay [2], 182; in assay [3], 21; in assay [4], 189; in assay [5], 86.8; in assay [6], 294. This molecule also showed a normalised SPOT signal, Boehringer light units (BLU); mean over the file's lines of this peptide in assay [7] of 160.

On to ITSIRGSPSLPKNK [YKL071W 35-48], for which the normalised SPOT signal, Boehringer light units (BLU); mean over the file's lines of this peptide in assay [1] worked out at 111; in assay [2], 420; in assay [3], 31.5; in assay [4], 1400; in assay [5], 44.2; in assay [6] it was 370. This molecule also had a normalised SPOT signal, Boehringer light units (BLU); mean over the file's lines of this peptide in assay [7] of 104.

Regarding KDKARGNPEKPPYW [YJL036W 14-27], the normalised SPOT signal, Boehringer light units (BLU); mean over the file's lines of this peptide is 50.3 in assay [1]; 247 in assay [2]; 15.2 in assay [3]; 63.5 in assay [4]; 19.5 in assay [5]; 59.9 in assay [6]. In assay [7], this molecule yielded a normalised SPOT signal, Boehringer light units (BLU); mean over the file's lines of this peptide of 67.1.

With ITDTKLFPGNPNLM [YFR029W 524-537], the normalised SPOT signal, Boehringer light units (BLU); mean over the file's lines of this peptide in assay [1] stood at 43.8; in assay [2], 113; in assay [3], 2.3; in assay [4], 28.7; in assay [5] it was 15.4; in assay [6], 94.6. This molecule displayed a normalised SPOT signal, Boehringer light units (BLU); mean over the file's lines of this peptide in assay [7] of 67.4.

For KDFSKNAPYNPSEV [YPR022C 111-124], the normalised SPOT signal, Boehringer light units (BLU); mean over the file's lines of this peptide in assay [1] came to 42; in assay [2] it was 76.6; in assay [3], 53.8; in assay [4], 0; in assay [5] it was 59.1; in assay [6], 143. In assay [7], the normalised SPOT signal, Boehringer light units (BLU); mean over the file's lines of this peptide was 63.7.

With KALPKRRPSPPLQS [YKR019C 209-222], the normalised SPOT signal, Boehringer light units (BLU); mean over the file's lines of this peptide in assay [1] turned out to be 758; in assay [2], 1770; in assay [3], 30.5; in assay [4], 13400; in assay [5] it was 2190; in assay [6], 1140. This molecule had a normalised SPOT signal, Boehringer light units (BLU); mean over the file's lines of this peptide in assay [7] of 906.

For ITRARYMPQDPNIV [YEL056W 121-134], the normalised SPOT signal, Boehringer light units (BLU); mean over the file's lines of this peptide was found to be 153 in assay [1]; 2220 in assay [2]; 70.9 in assay [3]; 486 in assay [4]; 84.6 in assay [5]; 190 in assay [6]. The molecule also registered a normalised SPOT signal, Boehringer light units (BLU); mean over the file's lines of this peptide in assay [7] of 111.

On to ITAEKSAPTSPEVY [YMR219W 1471-1484], for which the normalised SPOT signal, Boehringer light units (BLU); mean over the file's lines of this peptide in assay [1] is 116; in assay [2] it was 92.4; in assay [3], 0; in assay [4], 63.9; in assay [5], 71.1; in assay [6], 94.2. Moreover, the normalised SPOT signal, Boehringer light units (BLU); mean over the file's lines of this peptide in assay [7] came out at 3.5.
